Experimental data: patent US20080171037A1 (Genentech, published 2008)

Molecular target: T1, ECD of the Apo-2L receptor, DR5 (UniProt O14763 56-210, limits assumed)
T1 construct: extracellular domain; Comparison receptor
Test: co-immunoprecipitation (anti-Flag sepharose or nickel-sepharose), Western blot with nickel-conjugated HRP
Procedure: The respective ligands (1 μg/ml) and receptors (1 μg/ml) were incubated for 1 hour at room temperature. The reaction mixtures were subjected to precipitation with anti-Flag antibody conjugated to sepharose beads (Kodak) (FIG. 8A, left) or nickel-sepharose (Qiagen) (FIG. 8A, right) by overnight incubation at 4° C. according to manufacturer's instructions and resolved by gel electrophoresis. The ligands were visualized by Western blot analysis with nickel-conjugated horseradish peroxidase. In FIG. 8A, molecular weight markers (kDa) are indicated on the left.

B1: His-tagged soluble Apo-3 Ligand (ligand)
chain: MGHHHHHHHHHHSSGHIDDDDKHMRASLSAQEPAQEELVAEEDQDPSELNPQTEESQDPAPFLNRLVRPRRSAPKGRKTRARRAIAAHYEVHPRPGQDGAQAGVDGTVSGWEEARINSSSPLRYNRQIGEFIVTRAGLYYLYCQVHFDEGKAVYLKLDLLVDGVLALRCLEEFSATAASSLGPQLRLCQVSGLLALRPGSSLRIRTLPWAHLKAAPFLTYFGLFQVH
notes: also called histidine tagged soluble Apo-3 Ligand; DNA30879
Question: Does B1 bind?
Answer: no binding (tested: 1 µg/ml ligand and 1 µg/ml receptor)
